{"source": "paper PMC8699212", "about": "“Mechanism of Zn^2+ and Ca^2+ Binding to Human S100A1” (Biomolecules, 2021)", "proteins": {"B1": {"name": "S100A1 (natural protein, human)", "chain": "GSELETAMETLINVFHAHSGKEGDKYKLSKKELKELLQTELSGFLDAQKDVDAVDKVMKELDENGDGEVDFQEYVVLVAALTVACNNFFWENS", "modifications": "N-formylmethionine (fMet) at the N-terminus", "notes": "theoretical mass 10,545.5 Da, measured 10,571.2 ± 1.4 Da (fMet at the N-terminus); also called recombinant S100A1; human S100A1; source: residual Ca2+ removed"}}, "biological_target": "the molecule itself", "assay": "dynamic light scattering (DLS); 50 µM S100A1, 37 °C, without divalent metal ions or with 0.5-10 mM Ca2+ or Zn2+; hydrodynamic diameter (volume distribution); monomer to dimer"}
{"protein": "B1", "values": [{"measurement": "stoichiometry N", "value": 2}]}
